Assay results published in patent publication US20160083479A1 (AGENCY FOR SCIENCE TECHNOLOGY AND RESEARCH, published 2016).
No end group written: not given here. *: point of attachment. Biotin = O=C1N[C@H]2[C@H](CS[C@H]2CCCCC(=O)*)N1

Experiments:
peptide O28 (human) = assay: titration of purified mAb 2 against peptides, ELISA A450; rank order
peptide P10 = biological target: T1, peptide P10; assay: as above
T1 sequence (peptide, biotin at the N-terminus, linked by the SGSG linker): SGSGCIFSPQIEEASQCPD

peptide P15 = biological target: T2, peptide P15; assay: as above
T2 sequence (peptide, biotin at the N-terminus, linked by the SGSG linker): SGSGCIFSPQIEEPSQCPA

peptide P17 = biological target: T3, peptide P17; assay: as above
T3 sequence (peptide, biotin at the N-terminus, linked by the SGSG linker): SGSGAIEEPSQCPDCVVSA

peptide P19 = biological target: T4, peptide P19; assay: as above
T4 sequence (peptide, biotin at the N-terminus, linked by the SGSG linker): SGSGQIAEPSQCPDCVVSA

peptide P20 = biological target: T5, peptide P20; assay: as above
T5 sequence (peptide, biotin at the N-terminus, linked by the SGSG linker): SGSGQIEAPSQCPDCVVSA

peptide P25 = biological target: T6, peptide P25; assay: as above
T6 sequence (peptide, biotin at the N-terminus, linked by the SGSG linker): SGSGQIEEPSQCADCVVSA

peptide P7 = biological target: T7, peptide P7; assay: as above
T7 sequence (peptide, biotin at the N-terminus, linked by the SGSG linker): SGSGCIFSPQAEEPSQCPD

peptide P9 = biological target: T8, peptide P9; assay: as above
T8 sequence (peptide, biotin at the N-terminus, linked by the SGSG linker): SGSGCIFSPQIEAPSQCPD

peptide O27 = biological target: T9, peptide O27; assay: Pepscan / alanine scan peptide ELISA on streptavidin plates, A450
T9 construct: Negative control peptide
T9 peptide: Biotin-SGSGQSEVHCIFSPQIEEP
Procedure: Variations of peptides O28 and O29, where each amino acid residue was sequentially substituted for an alanine residue, were synthesised. Streptavidin-coated plates (Pierce/Thermo Scientific, #15520) were blocked with 3% BSA/PBS at room temperature. The peptides were dissolved in DMSO and stored according to manufacturer's recommendation. Streptavidin-coated plates were coated with each peptide (5 μg/mL) overnight at room temperature. Wells were washed before hybridoma supernatant or purified monoclonal antibody was added to the each well. HRP-conjugated anti-mouse antibody was added to detect bound monoclonal antibodies. ELISA substrate (Bio-Rad #172-1067) solution was prepared freshly according to the manufacturer's instructions and added to the wells. Colour change was monitored by eye and the reaction was stopped by adding 100 mM sulphuric acid. Absorbance was read at 450 nm in a microplate reader (SPECTRAmax PLUS³⁸⁴, Molecular Device, U.S.A). The crystal structure of c-Met extracellular domain, accession number 1 SHY, was obtained from Protein Data Base (PDB). Computer imaging of the epitopes were analysed by PyMol (DeLano Scientific LLC, U.S.A) software.
Pepscan analysis was used to determine the region of c-Met α-chain bound by mAb 2. […] Binding of the antibody was detected by colorimetric assay and analysed by absorbance reading at […]. […]

Increase mAb 2 binding in ascending order (rank) (peptide O28 (human)): 11 | Increase mAb 2 binding in ascending order (rank) (peptide P10): 7 | Increase mAb 2 binding in ascending order (rank) (peptide P15): 10 | Increase mAb 2 binding in ascending order (rank) (peptide P17): 5 | Increase mAb 2 binding in ascending order (rank) (peptide P19): 6 | Increase mAb 2 binding in ascending order (rank) (peptide P20): 9 | Increase mAb 2 binding in ascending order (rank) (peptide P25): 3 | Increase mAb 2 binding in ascending order (rank) (peptide P7): 8 | Increase mAb 2 binding in ascending order (rank) (peptide P9): 4 | binding result (peptide O27): no binding
B1: mAb 2 (antibody, IgG1, V domains shown)
VH: QVQLKESGGGLVQPGGSLTLSCATSGFTFTDHYMSWVRQPPGKALEWLAFIRNKAKGYTTEYNASVRGRFTISRDNSQNIVYLQMNTLRTEDSATYYCARDGVGIAYWGQGTLVTVSA
VL: SIVMTQSPLSLPVSLGDQASISCRSSQSLENINGNTYLNWYFQKPGQSPQLLIYRVSNRVSGVLDRFSGSGSGTDFTLKITRVEAEDLGVYFCLQVTHVPWTFGGGTKLEIK
notes: Murine monoclonal antibody purified from ascites (or hybridoma supernatant in the first Pepscan); constant regions are not; also called full length murine mAb 2
